This note sets out measurements from the DeepSol protein solubility set.

The series in a line: soluble on expression in E. coli; label from the status in PepcDB or PDB records.
Take “MSHLNYNHLYYFWMVCKQGSVTKAAEALFLTPQTVTGQIKALEDRLDGKLTKRNGRNIEPTELGQLIYKYADRMFGLSYEMLDIVNYSQQANVLFDVGVADALSKRLVSKVLSTTVPEDASIHLRCFESTHELLLEQLSQHKLDMILSDCPVDSSQNSGLFSKKLGECEMSFFCSKELKGVTFPEVLEKHKVLIPGSRTSMGRKVVQWCDQQGVTPNILGEFDDVALMKAFARENNAVFLAPSVYMNEADSDLSLHKIADVRDLKEEYYVIFAERMIQHPAVKSICEADFSHLFDF”: the “soluble on expression in E. coli” value is reported as “not soluble”.
For the sequence “MSLKKQPGFTQDYLLSKATTLPDKTRLERAVEPLCARHPGECGILALDNSLDAFAARYRLTEMAARTLDVQYYIWEDDMSGRLLFSVLLSAAKRGVHVRLLLDDNNTPGLDDTLRLLDSHPNIEVRLFNPFSFRTLRALGYLTDFARLNRRMHNKSYTADGVVTLVGGRNIGDAYFGAGEEPLFSDLDVMAIGPVVNDVANDFERYWRCSSVSTLQQVLSLSEQELTQRIELPESWYNDEITRRYLHKLETSQFMADLDCGTLPLIWAKTRLLSDDPSKGEGKAQRHSLLPQRLFDVMGSPTERIDIISAYFVPTRAGVAQLLNLVRKGVKIAILTNSLAANDVAVVHAGYARWRKKLLRYGVELYELKPTREHETAVHDRGLTGNSGSSLHAKTFSIDGSKVFIGSLNFDPRSTLLNTEMGFVIESETLATLIHKRFTQSQRDAAWQLRLDRWGRINWIDRQQEEEKVLKKEPATRFWQRVLVRLAAILPVEWLLEGHHHHHH”, the “soluble on expression in E. coli” value was “soluble”.
Turning to “MSFVPSEVRLDHTFLEWDKEWIFQRLPKTEIQIPREFEPDIETDAIPTIARQPADPNTTWNETGLDQIQMGPTINSTKN”, the “soluble on expression in E. coli” value is given as “not soluble”.
The value for “MSLKRVSEMKFCFCGEKKDSRVKPLRVAIIGAGPAGLSAACSLACDGFDVHVYDKMPEPGGMVAFGIPEWRIPISKVRQAVKEIEELGVVFHMRTKVVYDSPKELGDEFAERFVSLEKLMKEYDAILIATGAWRPRILDIPGKELKGVENALQLLLRINLARIGYLPQTKMPSFEGKRVVVIGAGYTAVDVAKEAKLLGAKSVTIAYRRSLQDSYAKNEFKKLIKEGVKFLEYVTPVRIFGDENVREVEFAKTKVVRGSVITTEEKRTIPADVIIFAIGQIPTNPIKEVLCSNEDILKNAGIFFAGDVISPRNIGTAIREGRKVAEEIKAWLTEHAFLNIRLSYPVSLRDISKSATEGHHHHHH” was “soluble”.
For “MVRIDAKGLHYKKLNDLIWEAVENGEEEIVLDNVCGQRYIGAGIRKKVKIEINGVPGNDLGVFMDGPEIIVNGNAQDGVGNTMNAGKIVVHGHAGDIIGYAMRGGHIYIKRNAGYRVGIHMKAYKENYPVVVIGGFARDFLGEYMAGGLLIVLGLEKDEDGNIAGNYVGTGMHGGEIFLRGTVEEHKLGKEVKIFQPTEEDINRIKPYVEEFCRLFDYDSEEILNEEFIILKPYTHRPYGRLYAY” the value was “not soluble”; for “MGHHHHHHSHMTSGPGGRSAAAGGRKENHQWYVCNREKLCESLQAVFVQSYLDQGTQIFLNNSIEKSGWLFIQLYHSFVSSVFSLFMSRTSINGLLGRGSMFVFSPDQFQRLLKINPDWKTHRLLDLGAGDGEVTKIMSPHFEEIYATELSETMIWQLQKKKYRVLGINEWQNTGFQYDVISCLNLLDRCDQPLTLLKDIRSVLEPTRGRVILALVLPFHPYVENGGKWEKPSEILEIKGQNWEEQVNSLPEVFRKAGFVIEAFTRLPYLCEGDMYNDYYVLDDAVFVLKPV”, “not soluble”.
For “MSLRIFKHQGCSAVKIRSTALVKGFRQSAPYVNAHRGKTMVVMLGGEAIADKNFPNIISDIALLHSLGVKVVLVHGARPQINQILEKNQRDTPYHKGVRITDESSLGLVMQAAGQLQHAITARLSMSLNNTPMAGTQLNVVSGNFIISQPLGIDEGVDYCHSGRIRRIDVEGINRMLDLGSIVLLGPIASSVTGECFNLLSEEVATQVAIKLKADKLIGFCPQQGIIDTKGNAIAELFPSDVERLVKSMEQECAPDDEECFSTMRFLRAALKACRAGVPRSHLVSYKEDGALIQELFSFDGIGTQIVMASAEQIRQATIDDIGGIFDLIRPLEEQGILVRRSREQLEQEIHKFTIIDKDGLVIGCSALYPYPEERMAEMACVAIHPEYRDGHRGLHLLVHSKHQAKQMGIRHLFVLTTHSTHWFREQGFNEVDVEALPMAKKSLYNYQRRSKILMLQLEGHHHHHH” the value was “not soluble”.
As to “MDHLKHLQQLQNIERIVLSGIVLANHKIEEVHSVLEPSDFYYPPNGLFFEIALKLHEEDCPIDENFIRQKMPKDKQIKEEDLVAIFAASPIDNIEAYVEEIKNASIKRKLFGLANTIREQALESAQKSSDILGAVEREVYALLNGSTIEGFRNIKEVLESAMDLITENQRKGSLEVTGIPTGFVQLDNYTSGFNKGSLVIIGARPSMGKTSLMMNMVLSALNDDRGVAVFSLEMSAEQLALRALSDLTSINMHDLESGRLDDDQWENLAKCFDHLSQKKLFFYDKSYVRIEQIRLQLRKLKSQHKELGIAFIDYLQLMSGSKATKERHEQIAEISRELKTLARELEIPIIALVQLNRSLENRDDKRPILSDIKDSGGIEQDADIVLFLYRGYIYQMRAEDNKIDKLKKEGKIEEAQELYLKVNEERRIHKQNGSIEEAEIIVAKNRNGATGTVYTRFNAPFTRYEDMPIDSHLEEGQETKVDYDIVTT”, the “soluble on expression in E. coli” value is “not soluble”.
The value for “MDTLPECPITNTASLLPHSGRMVLIDRITRYGDDFVEAGAQVSPNHILLLDDKLPYTAFIELMAQAVGAYAGIQARKNARSVRLGFLLGTRKLEIFAQSVPIGTHLLATAHMSIQDAGGMGVFDCELRWTDAPETSSETLPSDGILARASLNVYSPEHPAGTTDAVLEHHHHHH” was “not soluble”.
The value for “MACRQEPQPQGPPPAAGAVASYDYLVIGGGSGGLASARRAAELGARAAVVESHKLGGTCVNVGCVPKKVMWNTAVHSEFMHDHADYGFPSCEGKFNWRVIKEKRDAYVSRLNAIYQNNLTKSHIEIIRGHAAFTSDPKPTIEVSGKKYTAPHILIATGGMPSTPHESQIPGASLGITSDGFFQLEELPGRSVIVGAGYIAVEMAGILSALGSKTSLMIRHDKVLRSFDSMISTNCTEELENAGVEVLKFSQVKEVKKTLSGLEVSMVTAVPGRLPVMTMIPDVDCLLWAIGRVPNTKDLSLNKLGIQTDDKGHIIVDEFQNTNVKGIYAVGDVCGKALLTPVAIAAGRKLAHRLFEYKEDSKLDYNNIPTVVFSHPPIGTVGLTEDEAIHKYGIENVKTYSTSFTPMYHAVTKRKTKCVMKMVCANKEEKVVGIHMQGLGCDEMLQGFAVAVKMGATKADFDNTVAIHPTSSEELVTLR” was “soluble”; that for “MAHHHHHHMALTQSSGEPLRSMQGGVGGVSYADGAGQAPEHINRASATPVLTEEAVQSSIETFEDAACVREEAVRSYAEFHNNVESLHATMHTQLRPVWRTAMQLRPEILSDVRDEWCLRRRDNIPDGIPIPAAAAQHIALQETILSEVEDMLQVLRNTSVRFAAHFLSDEEKISMGANPAYLRAPDIDKEVVVSRSQSTSTSPQRALPASVMSVSSSAGAVASAPIKPSASSAATAAVHTPREGHSRHHQGSYVQHHHHHSDDEAGLVSSSSNRHVCSGKSSCGSRSAGEDPLLEELRKQYQLRIRELKAQSEAGASRRSEHGASQSAAAPPPRRGNRARVAASRSLSLPSWASSASASVLTSSSSTVSRR” was “soluble”; that for “MSLQFDARNMALLESLVVANVYLAPEKLQEELGISKRTLQYDVEKINKELDNIGLDGIQSVRGQGYYLLEDEKSTIKEILGNREASHKVFSASERRIRILFFLLVTDARVIIDTINECNEVSRNTSLQDIKQLKLALKQFNLELAYDRKNGNMVLGDERSIRQFFIHYCMNNEEIATADQLLDLMKINPMIKNQELFPKLDTIFEILAVTEKKIGIRYTDEVLERIGIMIFFFKERMKRNCYLNEQEEHEVESFEIAQEIYQQLQQSENFKINHAEITYLGKLLLGASRLNDDAAAEGKLDLIVEKIIAEFERLACVNFEDHRNLKKDLLLHLQPAYYRLKFQIEWINPLRTDIKQSYSDVYEITKKSLEPLEDLLGETIPEDEIAYVTILFGGYLSRKNNEGHHHHHH” was “soluble”.
For “MPAIVLIGAQWGDEGKGKATDLLGGRVQWVVRYQGGNNAGHTVVLPTGENFALHLIPSGVLTPGVTNVIGNGVVIDPGVLLNELRGLQDRGVDTAKLLISADAHLLMPYHIAIDKVTERYMGSKKIGTTGRGIGPCYQDKIARIGIRVADVLDPEQLTHKVEAACEFKNQVLVKIYNRKALDPAQVVDALLEQAEGFKHRIADTRLLLNAALEAGETVLLEGSQGTLLDVDHGTYPYVTSSNPTAGGAAVGSGIGPTRIGTVLGILKAYTTRVGSGPFPTELFDEHGEYLSKTGREFGVTTGRRRRCGWFDAVIARYAARVNGITDYFLTKLDVLSSLESVPVCVGYEIDGRRTRDMPMTQRDLCRAKPVYEELPGWWEDISGAREFDDLPAKARDYVLRLEQLAGAPVSCIGVGPGREQTIVRRDVLQDRP” the value was “not soluble”; for “MTDKSKTEKLISSDDKQSVIDGILDMVFNSKAYEVPWISEKLMELSKNKDLDIAGLSLTCFGHLARLHSNIGDYDKVIPLLHSKQDDPELQGRAEDALEDISLFLSENH”, “not soluble”; for “SNAMVEAIIFDMDGVLFDTEKYYYDRRASFLGQKGISIDHLPPSFFIGGNTKQVWENILRDEYDKWDVSTLQEEYNTYKQNNPLPYKELIFPDVLKVLNEVKSQGLEIGLASSSVKADIFRALEENRLQGFFDIVLSGEEFKESKPNPEIYLTALKQLNVQASRALIIEDSEKGIAAGVAADVEVWAIRDNEFGMDQSAAKGLLDSLTDVLDLI”, “soluble”.
For the sequence “MTRDLAPALQALSPLLGSWAGRGAGKYPTIRPFEYLEEVVFAHVGKPFLTYTQQTRAVADGKPLHSETGYLRVCRPGCVELVLAHPSGITEIEVGTYSVTGDVIELELSTRADGSIGLAPTAKEVTALDRSYRIDGDELSYSLQMRAVGQPLQDHLAAVLHRQRRSHHHHHH”, the “soluble on expression in E. coli” value is on record as “soluble”.
The value for “MIIVSRAIVLHNTAYNDSYSIAHLFSRESGRVSYLIPRSSKRGKSGGSLRLLISPLNELEITAEHKQHRDLHFIKEAKLCSLHGRIQSDPVRNSIALFLAEFLYLILRLPEADTNLYDFVAFSIDKLEEMDGPMANFHLAFLFRLLVPLGLIPDLQFGGSVIPRWFDPADGRFVPNAPAHGRGIPPHQSTYLQLFSRITFDNMKAFRLSRAERRQVLDYLVDYYRFHLPPFPLLKTPDILSTLFD” was “not soluble”; that for “MKKRAGIWAALLLAAVMLAGCGNPADQKDSKAKQKTEVFPVTIDDASNQDVTIKKEPKKIVSLMPSNTEITYALGLGDKVVGVTTNDTYPKEVKKVEKVGDMNVNVEKVISLKPDLVLAHESSMSASADAIKQLKDAGITVLTVNDAQSFSEVYKSIEMIGEAGGAEKKADQLVKSMKSDLKDIQEKAKTISKDEEKSVFIEVSPDPDIYTTGKDTFMNEMLNVIHAKNAAADQTGWVQMTDEAIVKLNPDAIVTTDGVKAKAVEKRDGWSEINAVKHHRVYDVDPDLVTRSGPRLIEGVEELAESIYPDTFKE” was “not soluble”; that for “MIYTLENQHLKISLSNHGGELHSIKGKKDNTEFLWSGDEAYWKYHAPILFPIVGKVFNGKYTVDGITYELPQHGLARVRDFEMIEQTKNSISFELKYSEDTLKVYPFKFSLIIKYTLNDINLSIDYIVKNLDNKEMYFSIGAHPAFMCPIENDKFDDYYFEFNKKENASIMQLVGPGYFSKEEKPYLKDEHIINLSTDLFKNDALVFKNLKSNKISLKSKNHKKYLEFDFGEFPYLGLWTKDTGAPFVCIEPWFGHADFDGFNGEFKDKAAIQSLMPNKEFHCNYNISFFELEHHHHHH” was “soluble”.
